The source of these data is patent US20250242023A1 (published 2025).

Experiment [1] has as its target T1, mesothelin (MsIn), murine peptide on H-2Db (mouse).
T1 peptide: GQKMNAQAI
In words: multimer staining. The source says: Flow cytometry: Mononuclear cells were stained with MsIn₄₀₆₋₄₁₄:H-2D^b-APC or -BV421 tetramer (1:100) in the presence of 1:100 Fc block (αCD16/32, Tonbo), and monoclonal antibodies diluted 1:100 in FACs Buffer (2% BSA+PBS) or (2.5% FBS+PBS+1% NaN₃) and specific to CD45 (30F-11, Biolegend), CD8a (53-6.7, Tonbo), CD44 (IM7, BD Biosciences), CD62L (MEL-14, Biolegend), CD69 (H1.2F3, BD Biosciences), CD25 (PC61, BD Biosciences), Vβ9 (MR10-2, Biolegend), CD3e (145-2C11, BD Biosciences), CD4 (GK1.5, BD Biosciences), and/or TCRβ (h57-597, eBiosciences) in the presence of live/dead stain (Tonbo Ghost dye in BV510 or APC ef780). Cells were fixed using Foxp3 transcription factor reagent (Tonbo), for 30 minutes at 4° C., washed and intracellular stained with aKi67 (B56, BD Biosciences) and/or Foxp3 (3G3, Tonbo) diluted 1:100 in Fix/Perm buffer (Tonbo) and stained overnight. The next day, cells were washed 2× with perm wash buffer and resuspended in FACs buffer or 0.4% PFA for 15 minutes at 4° C. Cells were resuspended in FACs buffer and Countbright Absolute Counting Beads (Thermo Fisher). Cells were acquired with a Fortessa 1770 flow cytometer and Facs Diva software (BD Biosciences). Data were analyzed using FlowJo software (version 10). ViSNE analysis was performed by gating on total live T cells with default settings of 1000 iterations, 30 perplexity and theta of 0.5 using Cytobank software.

The target of experiment [2] is T1, mesothelin (MsIn), murine peptide on …. The experiment can be described thus: cytokine release.

B1: 1045 TCR (TCR, V domains shown)
Valpha: GDSVTQTEGPVTVSESESLIINCTYSATSIAYPNLFWYVRYPGEGLQLLLKVITAGQKGSSRGFEATYNKETTSFHLQKASVQESDSAVYYCALGLDYANKMIFGLGTILRVRP
Vbeta: DTTVKQNPRYKLARVGKPVNLICSQTMNHDTMYWYQKKPNQAPKLLLFYYDKILNREADTFEKFQSSRPNNSFCSLYIGSAGLEYSAMYLCASSNPQDTQYFGPGTRLLVL
As to B1, the binding result in experiment [1] is “recognises”.

B2: 7431 TCR (TCR, V domains shown)
Valpha: GDSVTQTEGPVTVSESESLIINCTYSATSIAYPNLFWYVRYPGEGLQLLLKVITAGQKGSSRGFEATYNKETTSFHLQKASVQESDSAVYYCALGPDTNAYKVIFGKGTHLHVLP
Vbeta: DTTVKQNPRYKLARVGKPVNLICSQTMNHDTMYWYQKKPNQAPKLLLFYYDKILNREADTFEKFQSSRPNNSFCSLYIGSAGLEYSAMYLCASSRGANTEVFFGKGTRLTVV
As to B2, the binding result in experiment [2] is “recognises”.
